Measurements: patent US20260125428A1, “SYNTHETIC TRIPLEX PEPTIDE NUCLEIC ACID-BASED INHIBITORS FOR CANCER THERAPY” (University of Connecticut, priority 2022, published 2026)

What was measured:
[1] = Biodistribution in transgenic Ep-myc mice (IVIS, confocal); type: in vivo; conditions: 24 hours
Method: FIGS. 8A-D show organ distribution after intravenous and subcutaneous administration of indicated PNAs. (8A) The organ distribution of γPNA-NLS TAMRA after intravenous (IV) and subcutaneous (SC) administration in transgenic mice model of B-cell lymphoma (Ep-myc). γPNA-NLS TAMRA was administered at 5 mg/kg via IV and SC route and organ distribution was determined via IVIS imaging after 24 h. (8B) Confocal microscopy images of different lymph nodes (LNs) after IV and SC injection of γPNA-NLS TAMRA. Blue indicates DAPI and red indicated TAMRA. Scale bar, 30 μm. (8C) C-myc protein levels in brachial lymph nodes of γPNA5-NLS treated mice in comparison to the control (untreated mice). N=4 mice per group. (8D) C-myc protein levels in axillary lymph nodes of γPNA5-NLS treated mice in comparison to the control (untreated mice). N=4 mice per group. Transgenic or Ep-myc mice were treated with γPNA5-NLS at 60 mg/kg dose over 2 days and mice were euthanized on day 3 for analysis.
In vivo studies in transgenic mice model: Ep-myc mice model of Burkitt lymphoma (B6.Cg-Tg(IgHMyc)22Bri/J, #002728, Jackson laboratories) which overexpresses c-myc was also used to test the efficacy of the designed PNA-NLS.
Biodistribution study: γPNA7-NLS containing TAMRA was administered via retro-orbital and subcutaneous route at 5 mg/kg dose in mice with visibly enlarged lymph nodes (cervical, brachial, axillary, and inguinal). Mice were euthanized after 24 h and organs were collected followed by imaging via IVIS®. All major organs and enlarged lymph nodes were collected and frozen in OCT media. The lymph nodes and organs were sectioned at 10 μm thickness using cryostat. The sections were then fixed, permeabilized and nucleus was stained with DAPI. The localization of PNA in lymph nodes was studied via confocal microscopy. Images were taken using 60× oil lens on a AIR confocal microscope.

[2] = Biodistribution in U2932 xenograft mice (IVIS, confocal); type: in vivo
Method: FIGS. 5A-D show results of in vivo administration of indicated PNAs. (5A) IVIS® images of xenograft mice bearing tumors at indicated time points after systemic administration of PNA-TAMRA and γPNA7-NLS at 5 mg/kg. (5B) IVIS® imaging of organs harvested from xenograft mice treated with PNA-TAMRA and γPNA7-NLS after 6 h of systemic administration. (5C) Quantification of fluorescence from the organs harvested from PNA-TAMRA and γPNA7-NLS treated xenograft mice. (5D) Confocal microscopy images of tumor and kidney tissue cryo-sections from PNA-TAMRA and γPNA7-NLS treated U2932 xenograft mice. Scale bar, 30 μm.
FIGS. 6A-C show effect of systemic administration of indicated PNAs. (6A) IVIS® images of xenograft mice bearing tumors at indicated time points after systemic administration of γPNA7-NLS and γPNA6 at 5 mg/kg. (6B) IVIS® imaging of organs harvested from control, γPNA7-NLS, and γPNA6 treated mice after 24 hours of systemic administration. (6C) Confocal imaging of tumor, liver, and kidney sections obtained from xenograft mice after 24 h of treatment with γPNA7-NLS and γPNA6. Scale bar is 30 μm.
In vivo studies in xenograft mice model: U2932 derived xenografts were generated by implanting 10 million cells subcutaneously on the lower right flank of the female NSG mice (NOD.Cg-Prkdc^scidIl2rg^tm1Wj1/SzJ, #005557, Jackson Laboratories, USA) of 5-6 weeks. The mice were maintained in the animal care facility at the University of Connecticut following the required Institutional Animal Care and Use Committee guidelines (IACUC). Mice developed palpable tumors after 3-4 weeks of implantation. Tumor dimensions including length (l), breadth (b), and height (h) were measured using a caliper and volume was calculated using the formula for ellipsoid (0.5236×lbh).
Biodistribution studies: Mice with 600-800 mm^3 tumor volume were used for the biodistribution studies. γPNA7-NLS, γPNA6 and regular PNA-TAMRA (23 mer with 3 arginine residues) was injected systemically (retro-orbital) at 5 mg/kg dose. Live imaging of animals was performed using in vivo imaging (IVIS®) spectrum CT and epifluorescence was recorded at excitation/emission wavelength of 549/578 nm at 0, 0.25, 1, 2, 4, 6, 8 and 24 h. Mice were euthanized after 6 h and 24 h. Organs were collected and imaged via IVIS® to determine organ localization of PNA. Further organs were frozen in optimum cutting temperature media (OCT) at −80° C. The tumor, liver, and kidney from treated and untreated mice were sectioned using a cryostat to obtain 10 μm tissue sections. The sections were washed in PBS followed by fixation in 10% neutral buffered formalin. After washing with PBS, sections were permeabilized using 0.2% Triton™-X. The nucleus was stained using mounting media with DAPI (Invitrogen, USA). Sections were allowed to harden overnight, and images were taken using 60× oil lens on a Nikon AIR confocal microscope.

[3] = tested on: HeLa cells; test: Cellular uptake in HeLa cells (confocal microscopy); type: cell-based; conditions: 24 h, live cells
Method: (§1) FIGS. 3A-C show cellular uptake of indicated PNAs. (3A) A confocal image of HeLa cells showing cellular and nuclear uptake of γPNA7-NLS containing TAMRA at 2 μM dose and after 24 h of treatment. (3B) A confocal image of U2932 cells showing cellular and nuclear uptake of γPNA7-NLS containing tetramethylrhodamine (TAMRA) at 2 μM dose and after 24 h of treatment. (3C) A histogram representing flow cytometry results for cellular uptake of γPNA7-NLS in U2932 cells after incubation at different doses for 24 h. The scale bar represents 10 μm.
(§2) Cellular uptake: HeLa and U2932 cells were purchased from ATCC (USA), cultured in EMEM and RPMI media, respectively (Invitrogen, USA), supplemented with […] and 1% Penstrep at 37° C. and 5% CO2.
(§3) Confocal Microscopy: HeLa cells were seeded in 8 chamber slides at 50,000 cells/well. U2932 cells were seeded in 24 well plate at 100,000 cells per well. γPNA7-NLS containing TAMRA was added to the cells at 2 μM concentration. After 24 h, cells were washed with PBS to remove uninternalized PNA. The nucleus of live cells was stained using Hoechst dye and were visualized under confocal microscope (Nikon AIR, USA) while cells are maintained in CO2 independent media. […] Cells were then suspended in PBS and analyzed using LSR Fortessa X-20 cell analyzer (BD Biosciences, USA). The data was analyzed using Flowjo software.

[4] = tested on: U2932 cells; test: Cellular uptake in U2932 cells (confocal microscopy, flow cytometry); type: cell-based; conditions: 24 h
Method: as §1, §2, §3

[5] = organs harvested after 6 h, 5 mg/kg
[6] = xenograft mice, 5 mg/kg systemic, imaged up to 24 h

Substance: X3TCCCTCCCTCCGTTCTTTTTTCCCX7 (gamma PNA; NLS peptide; C-terminal TAMRA; gammaPNA to target; misc_feature 1 JJJTJJJT-linker- is covalently linked to the backbone, wherein J is pseudoisocytosine and the linker is 11-Amino-3,6,9-Trioxaundecanoic Acid (DCHA), represented as -OOO-; misc_feature 24 -K-linker-SEQ ID NO: 5-linker-label is covalently linked to the backbone, wherein the linker is 11-Amino-3,6,9-Trioxaundecanoic Acid (DCHA), represented as -OOO-, and the label i) [γPNA7-NLS]
- accumulation in lymph nodes after IV administration (confocal) ([1]; 5 mg/kg IV): minimal accumulation in the lymph nodes
- accumulation in lymph nodes after SC administration (confocal) ([1]; 5 mg/kg SC): accumulated significantly in multiple lymph nodes
- accumulation in lymph nodes, SC route in comparison to IV route (IVIS) ([1]; 5 mg/kg): significantly higher accumulation
- accumulation in tumor (confocal microscopy of cryo-sections) ([2]; 6 h, 5 mg/kg): superior accumulation
- TAMRA intensity from harvested tumors (IVIS) ([2]; 6 h after systemic administration, 5 mg/kg): significant TAMRA intensity
- accumulation in tumors in comparison to γPNA6 (confocal imaging) ([2]; 24 h, 5 mg/kg): significantly higher accumulation in tumors
- fluorescence signal of harvested tumors in comparison to γPNA6 (IVIS) ([2]; 24 h after systemic administration, 5 mg/kg): higher fluorescence signal
- accumulation in tumor in comparison to liver, kidney, and intestine [2, 5]: higher in comparison to the other organs
- accumulation in tumors in comparison to PNA-TAMRA (quantified fluorescence) [2, 5]: more than 6 fold
- tumor accumulation until (live IVIS imaging) ([2]; xenograft mice, 5 mg/kg retro-orbital, imaged up to 6 h): 6 h
- retained within the tumors until (live IVIS imaging) [2, 6]: 24 h
- significant accumulation in tumors starting from (live IVIS imaging) [2, 6]: 0.25 h
- cellular uptake, cytoplasm (confocal) [3]: significant accumulation of γPNA7-NLS in the cytoplasm
- nuclear uptake (confocal, TAMRA overlap with Hoechst) [3]: accumulation of γPNA7-NLS within the nucleus
- cellular and nuclear uptake (confocal) [4]: accumulation of γPNA7-NLS in both the nucleus and cytoplasm
- cellular uptake by flow cytometry ([4]; different doses): dose dependent increase in cellular uptake
